According to US10941182 (Amgen, dated 2021):
Where two headings read alike, the source gives them in different places. Each block holds one binder with its values, some of them ahead of it. Non-standard residues stand in square brackets, D forms with d. *: point of attachment. Oic = O=C(O)[C@@H]1C[C@@H]2CCCC[C@@H]2N1; Phe(4-Cl) = N[C@@H](Cc1ccc(Cl)cc1)C(=O)O; NMeR = CN[C@@H](CCCNC(=N)N)C(=O)O; Tridecanoyl = CCCCCCCCCCCCC(=O)*; Cha = N[C@@H](CC1CCCCC1)C(=O)O; Nle = CCCC[C@H](N)C(=O)O; AEEA = NCCOCCOCC(=O)O; Aib = CC(C)(N)C(=O)O

What was measured:
Assay in all cases: cell-based or functional assay
human APJ receptor [1] = target: T1, human APJ receptor (human, UniProt P35414 1-380)
T1 sequence (looked up): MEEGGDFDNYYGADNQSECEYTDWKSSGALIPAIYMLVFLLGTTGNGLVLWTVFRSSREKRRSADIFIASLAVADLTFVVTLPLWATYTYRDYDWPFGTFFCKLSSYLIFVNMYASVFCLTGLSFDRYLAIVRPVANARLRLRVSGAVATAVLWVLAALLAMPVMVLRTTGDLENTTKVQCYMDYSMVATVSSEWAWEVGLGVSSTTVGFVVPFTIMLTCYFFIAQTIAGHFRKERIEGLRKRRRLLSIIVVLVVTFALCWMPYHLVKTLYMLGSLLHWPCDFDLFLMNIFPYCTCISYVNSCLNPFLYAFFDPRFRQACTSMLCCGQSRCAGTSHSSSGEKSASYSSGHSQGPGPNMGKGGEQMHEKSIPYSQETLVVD

rat APJ receptor [2] = target: T2, rat APJ receptor (rat, UniProt Q9JHG3 1-377)
T2 sequence (looked up): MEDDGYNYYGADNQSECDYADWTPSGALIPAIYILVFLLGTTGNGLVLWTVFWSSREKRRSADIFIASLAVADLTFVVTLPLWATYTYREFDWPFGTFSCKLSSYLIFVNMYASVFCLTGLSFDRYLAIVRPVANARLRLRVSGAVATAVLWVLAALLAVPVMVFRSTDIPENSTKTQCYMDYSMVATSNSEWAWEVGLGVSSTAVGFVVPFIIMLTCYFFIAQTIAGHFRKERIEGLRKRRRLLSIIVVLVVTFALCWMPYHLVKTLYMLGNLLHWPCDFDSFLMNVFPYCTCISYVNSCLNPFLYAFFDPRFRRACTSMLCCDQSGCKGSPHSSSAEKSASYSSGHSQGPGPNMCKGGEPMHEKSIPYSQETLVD

human APJ receptor [3] = target: T1, human APJ receptor; remark: listed apart in the source
rat APJ receptor [4] = target: T2, rat APJ receptor; remark: listed apart in the source

Binder: Ac-QRP[NMeR][Cha]SHKG[Oic][Nle][Aib][Phe(4-Cl)]-OH [Acetylated version of peptide in Fc-peptide conjugate #4 (SEQ ID NO: 92)]
EC50 Human APJ Receptor (µM), GTPγS assay (human APJ receptor [3]): 0.000679 µM | EC50 Rat APJ Receptor (µM), GTPγS assay (rat APJ receptor [4]): 0.00323 µM

B3: Acetylated version of peptide in Fc-peptide conjugate #3 (SEQ ID NO: 95) (peptide)
peptide: QRPRLSHKGPXPF
modifications: {Acetyl-NH}Q[NMehArg]P[NMeArg][aMeLeu]SHKGP[Nle]P[4-Cl-F]{COOH: N-terminal acetyl; NMehArg, NMeArg, aMeLeu, Nle, 4-Cl-F non-canonical; free C-terminal acid
EC50 Rat APJ Receptor (µM), GTPγS assay (rat APJ receptor [4]): 0.00393 µM

B4: Acetylated version of peptide in Fc-peptide conjugate #1 (SEQ ID NO: 70) (peptide)
peptide: QRPRLSHKGPXPF
modifications: {Acetyl-NH}Q[r]P[hArg][aMeLeu]SHKGP[Nle] P[4-Cl-F]{COOH}: N-terminal acetyl; r = D-Arg; hArg, aMeLeu, Nle, 4-Cl-F non-canonical; free C-terminal acid
EC50 Rat APJ Receptor (µM), GTPγS assay (rat APJ receptor [4]): 0.00974 µM

Next, values leading:

EC50 Human APJ Receptor (µM), GTPγS assay (human APJ receptor [1]): 0.000404 µM | EC50 Rat APJ Receptor (µM), GTPγS assay (rat APJ receptor [2]): 0.00133 µM
B1: modified apelin polypeptide SEQ ID NO: 547 (peptide)
peptide: Tridecanoyl-[dE][AEEA][AEEA][dQ]RP[NMeR][Cha]SHKG[Oic][Nle][Aib][Phe(4-Cl)]-OH
SMILES: CCCCCCCCCCCCC(=O)N[C@H](CCC(=O)O)C(=O)NCCOCCOCC(=O)NCCOCCOCC(=O)N[C@H](CCC(N)=O)C(=O)N[C@@H](CCCNC(=N)N)C(=O)N1CCC[C@H]1C(=O)N(C)[C@@H](CCCNC(=N)N)C(=O)N[C@@H](CC1CCCCC1)C(=O)N[C@@H](CO)C(=O)N[C@@H](Cc1c[nH]cn1)C(=O)N[C@@H](CCCCN)C(=O)NCC(=O)N1[C@H](C(=O)N[C@@H](CCCC)C(=O)NC(C)(C)C(=O)N[C@@H](Cc2ccc(Cl)cc2)C(=O)O)C[C@@H]2CCCC[C@@H]21

EC50 Human APJ Receptor (µM), GTPγS assay (human APJ receptor [1]): 0.00028 µM | EC50 Rat APJ Receptor (µM), GTPγS assay (rat APJ receptor [2]): 0.00108 µM
B2: modified apelin polypeptide SEQ ID NO: 537 (peptide)
peptide: Tridecanoyl-E[AEEA][AEEA][dQ]RP[NMeR][Cha]SHKG[Oic][Nle][Aib][Phe(4-Cl)]-OH
SMILES: CCCCCCCCCCCCC(=O)N[C@@H](CCC(=O)O)C(=O)NCCOCCOCC(=O)NCCOCCOCC(=O)N[C@H](CCC(N)=O)C(=O)N[C@@H](CCCNC(=N)N)C(=O)N1CCC[C@H]1C(=O)N(C)[C@@H](CCCNC(=N)N)C(=O)N[C@@H](CC1CCCCC1)C(=O)N[C@@H](CO)C(=O)N[C@@H](Cc1c[nH]cn1)C(=O)N[C@@H](CCCCN)C(=O)NCC(=O)N1[C@H](C(=O)N[C@@H](CCCC)C(=O)NC(C)(C)C(=O)N[C@@H](Cc2ccc(Cl)cc2)C(=O)O)C[C@@H]2CCCC[C@@H]21
